Assay results as given in patent US20260070961A1.

Tests used:
[1] = molecular target: DENV-3 VLP (Dengue virus serotype 3); experiment: BLI (Octet-HTX), IgG captured on Protein A biosensor, 5 ug/mL DENV-VLP
[2] = molecular target: DENV-3 VLP (Dengue virus serotype 3); experiment: BLI (Octet-HTX), IgG captured on Protein A biosensor, 5 ug/mL DENV-VLP, 1:1 model

4G2 (antibody)
response [1]: 0.316
koff [2]: 0.000345 s⁻¹
